{"source": "patent US20240352121A1", "about": "“LAIR-1 AGONISTIC ANTIBODIES AND METHODS OF USE THEREOF” (NEXTCURE, INC., priority 2023, published 2024)", "key": {"[1]": {"test_system": "LSCs within the bone-marrow of PDX donor animals", "test": "PDX secondary transplant model", "type": "in vivo, NSG-SGM3 mice", "conditions": "bone-marrow from PDX donors treated for 4 weeks; no further treatment", "protocol": "(§1) Newborn (3-5 day from birth) NSG-SGM3 pups were sub-lethally (200 cGy) irradiated. 12 hours post-irradiation, mice were intra-hepatically transplanted with 0.2e6 AML bone-marrow cells or normal CD34 HSCs from cryopreserved stocks. 6 weeks post-transplant, blood was collected to assess engraftment of progenitor cells via flow cytometry, staining for human CD45, human CD33, and human CD3. Once engraftment of human cells was confirmed, 5 mg/kg of anti-human LAIR-1 mAb or isotype control was intraperitoneally injected weekly for a total of 4 doses. At the indicated timepoints post-treatment, blood was collected to assess the proliferation of AML cells as a measure of LAIR-1 mAb anti-leukemic activity as compared to isotype control. For standard-of-care combination studies, PDX mice were treated with 20 mg/kg venetoclax 5 days on and 2 days off for 5 weeks, and X 1.5 mg/kf-tiw azacytidine upfront one week only. LAIR-1 mAb was treated i.p. once per week for 5 weeks. Blood was harvested as described above to measure leukemic growth and spleens were harvested at endpoint and weighed for assessment of splenomegaly. For secondary transplant studies, mice were engrafted as above. […] Leukemia progression in recipient mice was measured by flow cytometry by quantifying the percent of human CD33^+ human CD45^+ cells in peripheral blood at weeks 4, 6, and 10 weeks post-transplant."}, "[2]": {"test": "Pharmacokinetic study in balb/c mice", "type": "in vivo", "conditions": "10 mg/kg intraperitoneal, blood serum", "protocol": "Balb/c mice were intraperitoneally injected with 10 mg/kg h11B3. Mice were subsequently bled by cheek-vein puncture at the indicated time points. Blood serum was isolated by centrifugation at 2500 RCF in serum-collection tubes. Blood serum was tested for circulating h11B3 by Universal PK assay. Briefly, h11B3 in mouse serum was captured using a biotin-labeled anti-human IgG inside a nanoliter column of a Gyrolab CD. Alexa Fluor labeled anti-human IgG was used for detection. The quantitative dynamic range was (500-100,000) ng/ml (LLOQ-ULOQ). The standard curve and controls were prepared in pooled Balb/C serum (Biochemed). Standard curve, controls, and samples were diluted 1:10-fold (MRD) in buffer. Samples above the upper limit of quantitation (100,000 ng/mL) were brought within range by diluting them in Rexiip buffer. The laser-induced fluorescence detection technique detected the amount of analyte present in the sample. The standard curve signals were used to interpolate unknown sample concentrations. All samples were analyzed in duplicates and assigned an acceptance criteria (±20% CV and Bias). Gyrolab Evaluator software was used to perform 4PL with Y weighing non-linear regression to interpolate unknown sample concentrations."}, "[3]": {"test_system": "AML patient LSCs engrafted in mice", "test": "AML patient-derived xenograft (PDX) model", "type": "in vivo, NSG-SGM3 mice", "conditions": "5 mg/kg i.p. weekly, 4 doses; at any time point", "protocol": "as §1"}, "human LAIR-1": {"test_system": "human LAIR-1", "sequence (as listed by the source)": "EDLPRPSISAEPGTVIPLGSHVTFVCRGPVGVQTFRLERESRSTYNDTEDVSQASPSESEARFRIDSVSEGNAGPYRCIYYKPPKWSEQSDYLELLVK", "test": "UT-140 LAIR-1 reporter cell activation (agonism)", "type": "cell-based", "conditions": "upon engagement and crosslinking", "protocol": "For cell binding assays, 5e4 UT-140 cells or mouse LAIR-1-transfected 293T cells per well were plated in 200 μL PBS in a 96-well round bottom plate, centrifuged for 4 minutes at 500×g for a single wash, and blocked for 10 minutes on ice with flow cytometry buffer (PBS+2% FBS+0.1 mM EDTA) containing 1:50 dilution of TruStain™ Fc block (Biolegend, San Diego, CA). Cells were subsequently stained for 30 min on ice with titrated concentrations of soluble AF647-labeled LAIR-1 mAb or AF647-labeled isotype control. Cells were then washed 3 times as previously described and binding was measured by flow cytometry using an Attune NXT flow cytometer. For reporter cell assays, flat-bottom 96-well TC plates were coated with 10 μg/mL per well of the indicated antibody in PBS or 2 μg/mL of ligand in 0.01N HCl overnight at 4° C. Wells were washed once with 200 μL sterile PBS. 5e4-to-1e5 cells per well were plated in 100 μL RPMIc containing titrated concentrations of LAIR-1 mAb or isotype control, then incubated overnight at 37° C. The next day, cells were transferred to a 96-well round-bottom plate, centrifuged for 4 minutes at 500×g, and resuspended in 200 μL of flow cytometry buffer. Cells were then centrifuged and resuspended for a total of 3 washes. GFP expression was measured by flow cytometry using an Attune NXT Flow Cytometer."}, "healthy CD34+ cells": {"test_system": "healthy CD34+ cells", "test": "NC525 clustering of LAIR-1 in healthy CD34+ cells", "type": "cell-based, human"}, "[4]": {"test_system": "blood leukocytes from healthy (non-AML) donors", "test": "Ex vivo depleting assay, healthy donor blood leukocytes", "type": "cell-based, human", "conditions": "even in the presence of collagen ECM", "protocol": "Fresh whole blood was RBC-depleted using the EasySep™ RBC Depletion Reagent (StemCell, Vancouver, BC) following the manufacturer's protocol. Alternatively, frozen PBMCs were thawed in pre-warmed cRPMI media. Cell number was determined by VI-Cell XR cell counter. 2e5 cells per well were plated into 96-well plates lacking or containing 50 μg/mL pre-coated human Collagen I (StemCell, Vancouver, BC) in 200 μL of cRPMI containing 10 μg/mL of soluble LAIR-1 mAb or isotype control antibody (NP782 (NextCure, Beltsville, MD) or InVivoMAb recombinant human IgG1 Fc (BioXcell, Lebanon, NH)). Plates were centrifuged at 100×g for 2 minutes, then incubated for 20 hours at 37° C. in a TC incubator. At the end of incubation period, plates were centrifuged at 500×g for 4 min. Cells were resuspended and then transferred to a 96-well round-bottom plate for cell staining and flow cytometry as described above."}}}
{"molecule": "LAIR-1 mAb: humanized agonist anti-LAIR-1 mAb, IgG1 backbone; h11B3 VL-2 (SEQ ID NO: 16), h11B3 VH-3 (SEQ ID NO: 27) (antibody, V domains shown, IgG1 constant regions; Synthetic: h11B3 VH-3; Synthetic: h11B3 VL-2) VH: EVQLVESGGGLVQPGGSLKLSCAASGFTFNTNAMYWVRQAPGKGLEWVGRIRSKSSNYATYYAASVKGRFTISRDDSKNTLYLQMNSLKTEDTAVYYCVRGGSGFFAYWGQGTLVTVSS VL: DIQMTQSPSSLSASLGDRVTITCKASEDIYIRLAWYQQKPGKAPRLLISTATSLETGVPSRFSGSGSGTDYTFTISSLQPEDIATYYCQQYWSTPYTFGGGTRLEIK", "values": [{"measurement": "disease development in secondary recipient mice", "setting": "[1]", "value": "developed no disease"}, {"measurement": "Tmax", "setting": "[2]", "value": 8, "unit": "h"}, {"measurement": "human CD45 CD33 cells in circulation", "setting": "[3]", "value": "< 10", "unit": "%"}, {"measurement": "human LAIR-1 signaling (agonist)", "setting": "human LAIR-1", "value": "capable of inducing human LAIR-1 signaling"}, {"measurement": "changes in signaling activity", "setting": "healthy CD34+ cells", "value": "minimal changes"}, {"measurement": "depletion of blood leukocytes", "setting": "[4]", "value": "did not deplete"}]}
